From patent US20120316071A1 (published 2012) come the findings set out here.

Assay [1] addresses T1, Recombinant Human DLL4 (R&D Systems Cat#1506-D4/CF) (human, UniProt Q9NR61 27-524).
T1 construct: bought recombinant protein; also called rHuman DLL4; delta-like protein 4
Description: SPR.

Assay [2] addresses T1, Recombinant Human DLL4 (R&D Systems …). Nature of the assay: affinity quoted with the Multispot ECL titration; method of the number not stated there.
Assay [3] addresses T2, Recombinant Human DLL4 (R&D Systems Cat#1506-D4/CF) (human, UniProt Q9NR61 27-524).
T2 construct: Bought recombinant protein; also called delta-like protein 4; rHuman DLL4
Nature of the assay: ECL multispot binding assay (MSD), antigen spotted on plate, 10 nM Fab.

Assay [4] addresses T3, rHuman ErbB2/Fc Chimera, CF (R&D Systems Cat#1129-ER) (human, UniProt P04626 23-652).
T3 construct: Bought recombinant protein; also called human epidermal growth factor 2 receptor; Fc part of the bought chimera not given
Described as above.

Assay [5] concerns the target T4, rHuman EGF R/Fc Chimera, CF (R&D Systems Cat#344-ER) (human, UniProt P00533 25-645).
T4 construct: Bought recombinant protein; also called epidermal growth factor receptor; Fc part of the bought chimera not given
The description is as above.

Assay [6] concerns the target T5, rHuman HGF R/c-MET/Fc Chimera, CF (R&D Systems Cat#358-MT/CF) (human, UniProt P08581 25-932).
T5 construct: Bought recombinant protein; also called HGF R/Fc; hepatocyte growth factor receptor; Fc part of the bought chimera not given
The description is as above.

Assay [7] deals with T6, rHuman Notch-1/Fc Chimera, CF (R&D Systems Cat#3647-TK) (human, UniProt P46531 19-526).
T6 construct: Bought recombinant protein; Fc part of the bought chimera not given
Described as above.

The target of assay [8] is T7, rHuman CD44/Fc Chimera, CF (R&D Systems Cat#3660-CD) (human, UniProt P16070 21-220).
T7 construct: Bought recombinant protein; Fc part of the bought chimera not given
The assay is described as above.

The target of assay [9] is T8, rHuman IGF-1 sR, CF (R&D Systems Cat#391-GR) (human, UniProt P08069 31-932).
T8 construct: also called insulin-like growth factor-1 soluble receptor
The description is as above.

The target in assay [10] is T9, rHuman P-Cadherin/Fc Chimera, CF (R&D Systems Cat#861-PC) (human, UniProt P22223 108-654).
T9 construct: Bought recombinant protein; Fc part of the bought chimera not given
The assay is described as above.

The target of assay [11] is T10, rHuman Erythropoietin R/Fc Chimera, CF (R&D Systems Cat#963-ER) (human, UniProt P19235 25-250).
T10 construct: Bought recombinant protein; also called EPO R; EPO R/Fc; Fc part of the bought chimera not given
T10 sequence (looked up): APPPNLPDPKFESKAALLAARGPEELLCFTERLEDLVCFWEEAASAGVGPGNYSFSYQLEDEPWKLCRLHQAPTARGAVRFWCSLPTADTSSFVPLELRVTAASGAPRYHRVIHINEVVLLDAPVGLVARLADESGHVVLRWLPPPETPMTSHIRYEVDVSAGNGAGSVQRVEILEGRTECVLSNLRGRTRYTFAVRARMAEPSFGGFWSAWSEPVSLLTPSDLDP
The description is as above.

The target of assay [12] is T11, Recombinant Human DLL4 (R&D Systems Cat#1506-D4/CF) (human, UniProt Q9NR61 27-524).
T11 construct: Bought recombinant protein; also called delta-like protein 4; rHuman DLL4
Nature of the assay: ECL Multispot (MSD), DLL4 spotted, 10 nM Fab.

Assay [13] has as its target T11, Recombinant Human DLL4 (R&D Systems …). Description: ELISA, DLL4 coated, 100 nM Fab, absorbance at 450 nm minus noise.
The target in assay [14] is T12, rHuman HGF R/c-MET/Fc Chimera, CF (R&D Systems Cat#358-MT/CF) (human, UniProt P08581 25-932).
T12 construct: Bought Fc chimera; also called HGF R/Fc; hepatocyte growth factor receptor; Fc part of the bought chimera not given
Nature of the assay: ECL Multispot (MSD), antigen spotted, Fab 0.50 (column head 'Fab [µM]'); blank 206.

The target of assay [15] is T13, rHuman IGF-1 sR, CF (R&D Systems Cat#391-GR) (human, UniProt P08069 31-932).
T13 construct: Bought soluble receptor; also called insulin-like growth factor-1 soluble receptor
Described as above.

Assay [16] has as its target T14, rHuman P-Cadherin/Fc Chimera, CF (R&D Systems Cat#861-PC) (human, UniProt P22223 108-654).
T14 construct: Bought Fc chimera; Fc part of the bought chimera not given
The assay is described as above.

The target in assay [17] is T11, Recombinant Human DLL4 (R&D Systems …). Described as above.
Assay [18] addresses T15, rHuman ErbB2/Fc Chimera, CF (R&D Systems Cat#1129-ER) (human, UniProt P04626 23-652).
T15 construct: Bought Fc chimera; also called human epidermal growth factor 2 receptor; Fc part of the bought chimera not given
The description is as above.

Assay [19] addresses T12, rHuman HGF R/c-MET/Fc Chimera, CF (R&D …). Description: ECL Multispot (MSD), antigen spotted, Fab 5.00 (column head 'Fab [µM]'); blank 268.
Assay [20] concerns the target T13, rHuman IGF-1 sR, CF (R&D Systems …). The description is as above.
For assay [21], the target named is T14, rHuman P-Cadherin/Fc Chimera, CF (R&D …). Described as above.
The target of assay [22] is T11, Recombinant Human DLL4 (R&D Systems …). The description is as above.
The target of assay [23] is T15, rHuman ErbB2/Fc Chimera, CF (R&D …). Described as above.
The target of assay [24] is T12, rHuman HGF R/c-MET/Fc Chimera, CF (R&D …). Nature of the assay: ECL Multispot (MSD), antigen spotted, Fab 50.00 (column head 'Fab [µM]'); blank 223.
The target of assay [25] is T13, rHuman IGF-1 sR, CF (R&D Systems …). The assay is described as above.
In assay [26] the target is T14, rHuman P-Cadherin/Fc Chimera, CF (R&D …). The description is as above.
In assay [27] the target is T11, Recombinant Human DLL4 (R&D Systems …). Described as above.
In assay [28] the target is T15, rHuman ErbB2/Fc Chimera, CF (R&D …). The description is as above.
The target in assay [29] is T12, rHuman HGF R/c-MET/Fc Chimera, CF (R&D …). Description: ECL Multispot (MSD), antigen spotted, Fab 500.00 (column head 'Fab [µM]'); blank 495.
Assay [30] addresses T13, rHuman IGF-1 sR, CF (R&D Systems …). The assay is described as above.
Assay [31] has as its target T14, rHuman P-Cadherin/Fc Chimera, CF (R&D …). The description is as above.
Assay [32] addresses T11, Recombinant Human DLL4 (R&D Systems …). The description is as above.
The target of assay [33] is T15, rHuman ErbB2/Fc Chimera, CF (R&D …). The description is as above.

B1: Fab VH1-46_IGHD6-6*01_IGHJ1*01 S102A/S103P/S104F/H111F & L6_IGKJ1*01 (Fab, V domains shown)
VH: QVQLVQSGAEVKKPGASVKVSCKASGYTFTSYYMHWVRQAPGQGLEWMGIINPSGGSTSYAQKFQGRVTMTRDTSTSTVYMELSSLRSEDTAVYYCAREEYAPFSAEYFQFWGQGTLVTVSS
VL: not shown
notes: Fab; also called H:APFF & L:wt; APFF mutant
With B1, the “fold affinity against the parent Fab” value in [1] is 10 fold. Further, the “apparent Kd (pooled screen)” value in assay [2] was 70 nM.

B2: Fab VH1-46_IGHD6-6*01_IGHJ1*01 S102A/S103P/S104F/H111F S59A & L6_IGKJ1*01 (Fab, V domains shown)
VH: QVQLVQSGAEVKKPGASVKVSCKASGYTFTSYYMHWVRQAPGQGLEWMGIINPSGGSTAYAQKFQGRVTMTRDTSTSTVYMELSSLRSEDTAVYYCAREEYAPFSAEYFQFWGQGTLVTVSS
VL: not shown
notes: Tested as a Fab made in E. coli; also called APFF S59A
As for B2, the ECL signal was 4500 in assay [3]; 312 in [4]; 358 in assay [5]; 280 in assay [6]; 333 in assay [7]; 346 in assay [8]. The ECL signal is 273 in assay [9], 339 in assay [10] and 382 in assay [11].

B3: Fab VH1-46_IGHD6-6*01_IGHJ1*01 S102A/S103P/S104F/H111F (APFF) & L6_IGKJ1*01 (Fab, V domains shown)
VH: QVQLVQSGAEVKKPGASVKVSCKASGYTFTSYYMHWVRQAPGQGLEWMGIINPSGGSTSYAQKFQGRVTMTRDTSTSTVYMELSSLRSEDTAVYYCAREEYAPFSAEYFQFWGQGTLVTVSS
VL: not shown
notes: Tested as Fab expressed in E. coli: heavy chain from plasmid A (CH1 with His6 and Flag tags), kappa light chain from plasmid C (CL kappa); also called H:APFF & L:wt
As to B3, in assay [12], the “ECL Signal/Noise” value came to 202. The “ELISA (Signal-Noise)” value in assay [13] stood at 0.78. Besides, the ECL signal in assay [14] stood at 215; in assay [15] it was 184; in assay [16], 201; in assay [17], 7540; in assay [18] it was 222; in assay [19], 258. In addition, the ECL signal in [20] stood at 323; in assay [21], 280; in assay [22], 75800; in [23], 286; in assay [24], 380; in assay [25], 485. Besides, the ECL signal in [26] came out at 453; in assay [27] it was 79300; in [28], 503; in [29], 723; in assay [30], 736; in [31], 785. The ECL signal in assay [32] was found to be 27200; in [33], 712.
